B1: EF-hand domain-containing protein 1 (Homo sapiens), Q5JVL4 (parent)
chain: MVSNPVHGLPFLPGTSFKDSTKTAFHRSQTLSYRNGYAIVRRPTVGIGGDRLQFNQLSQAELDELASKAPVLTYGQPKQAPPADFIPAHVAFDKKVLKFDAYFQEDVPMSTEEQYRIRQVNIYYYLEDDSMSVIEPVVENSGILQGKLIKRQRLAKNDRGDHYHWKDLNRGINITIYGKTFRVVDCDQFTQVFLESQGIELNPPEKMALDPYTELRKQPLRKYVTPSDFDQLKQFLTFDKQVLRFYAIWDDTDSMYGECRTYIIHYYLMDDTVEIREVHERNDGRDPFPLLMNRQRVPKVLVENAKNFPQCVLEISDQEVLEWYTAKDFIVGKSLTILGRTFFIYDCDPFTRRYYKEKFGITDLPRIDVSKREPPPVKQELPPYNGFGLVEDSAQNCFALIPKAPKKDVIKMLVNDNKVLRYLAVLESPIPEDKDRRFVFSYFLATDMISIFEPPVRNSGIIGGKYLGRTKVVKPYSTVDNPVYYGPSDFFIGAVIEVFGHRFIILDTDEYVLKYMESNAAQYSPEALASIQNHVRKREAPAPEAESKQTEKDPGVQELEALIDTIQKQLKDHSCKDNIREAFQIYDKEASGYVDRDMFFKICESLNVPVDDSLVKELIRMCSHGEGKINYYNFVRAFSN
partner: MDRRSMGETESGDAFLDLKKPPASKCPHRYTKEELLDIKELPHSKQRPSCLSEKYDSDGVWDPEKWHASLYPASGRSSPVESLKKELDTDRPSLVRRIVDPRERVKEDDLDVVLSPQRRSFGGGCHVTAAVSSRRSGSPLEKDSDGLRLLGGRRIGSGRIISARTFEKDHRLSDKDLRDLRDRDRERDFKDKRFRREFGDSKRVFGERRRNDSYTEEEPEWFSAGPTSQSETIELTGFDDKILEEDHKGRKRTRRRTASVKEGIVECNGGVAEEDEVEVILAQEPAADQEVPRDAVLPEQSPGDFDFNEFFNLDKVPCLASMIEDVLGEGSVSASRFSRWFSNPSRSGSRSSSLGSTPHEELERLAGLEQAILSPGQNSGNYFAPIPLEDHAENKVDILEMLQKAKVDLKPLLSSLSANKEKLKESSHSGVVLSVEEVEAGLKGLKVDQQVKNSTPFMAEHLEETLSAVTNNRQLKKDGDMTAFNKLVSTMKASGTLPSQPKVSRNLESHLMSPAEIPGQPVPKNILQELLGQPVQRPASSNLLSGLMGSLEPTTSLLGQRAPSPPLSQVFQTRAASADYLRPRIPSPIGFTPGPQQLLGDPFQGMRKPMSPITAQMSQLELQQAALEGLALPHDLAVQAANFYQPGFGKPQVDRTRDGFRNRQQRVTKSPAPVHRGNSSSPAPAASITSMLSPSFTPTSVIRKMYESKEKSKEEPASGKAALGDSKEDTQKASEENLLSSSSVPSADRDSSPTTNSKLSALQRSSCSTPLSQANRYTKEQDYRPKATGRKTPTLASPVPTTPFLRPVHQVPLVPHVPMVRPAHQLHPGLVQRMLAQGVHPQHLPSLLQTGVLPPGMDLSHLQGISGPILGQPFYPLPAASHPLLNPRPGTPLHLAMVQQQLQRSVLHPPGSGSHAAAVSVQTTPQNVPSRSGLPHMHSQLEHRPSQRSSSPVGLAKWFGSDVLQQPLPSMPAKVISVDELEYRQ
B2: Keratin, type II cytoskeletal 2 epidermal (Homo sapiens), P35908 (parent)
chain: MSCQISCKSRGRGGGGGGFRGFSSGSAVVSGGSRRSTSSFSCLSRHGGGGGGFGGGGFGSRSLVGLGGTKSISISVAGGGGGFGAAGGFGGRGGGFGGGSSFGGGSGFSGGGFGGGGFGGGRFGGFGGPGGVGGLGGPGGFGPGGYPGGIHEVSVNQSLLQPLNVKVDPEIQNVKAQEREQIKTLNNKFASFIDKVRFLEQQNQVLQTKWELLQQMNVGTRPINLEPIFQGYIDSLKRYLDGLTAERTSQNSELNNMQDLVEDYKKKYEDEINKRTAAENDFVTLKKDVDNAYMIKVELQSKVDLLNQEIEFLKVLYDAEISQIHQSVTDTNVILSMDNSRNLDLDSIIAEVKAQYEEIAQRSKEEAEALYHSKYEELQVTVGRHGDSLKEIKIEISELNRVIQRLQGEIAHVKKQCKNVQDAIADAEQRGEHALKDARNKLNDLEEALQQAKEDLARLLRDYQELMNVKLALDVEIATYRKLLEGEECRMSGDLSSNVTVSVTSSTISSNVASKAAFGGSGGRGSSSGGGYSSGSSSYGSGGRQSGSRGGSGGGGSISGGGYGSGGGSGGRYGSGGGSKGGSISGGGYGSGGGKHSSGGGSRGGSSSGGGYGSGGGGSSSVKGSSGEAFGSSVTFSFR
B3: DNA ligase 4 (Homo sapiens), P49917 (parent)
chain: MAASQTSQTVASHVPFADLCSTLERIQKSKGRAEKIRHFREFLDSWRKFHDALHKNHKDVTDSFYPAMRLILPQLERERMAYGIKETMLAKLYIELLNLPRDGKDALKLLNYRTPTGTHGDAGDFAMIAYFVLKPRCLQKGSLTIQQVNDLLDSIASNNSAKRKDLIKKSLLQLITQSSALEQKWLIRMIIKDLKLGVSQQTIFSVFHNDAAELHNVTTDLEKVCRQLHDPSVGLSDISITLFSAFKPMLAAIADIEHIEKDMKHQSFYIETKLDGERMQMHKDGDVYKYFSRNGYNYTDQFGASPTEGSLTPFIHNAFKADIQICILDGEMMAYNPNTQTFMQKGTKFDIKRMVEDSDLQTCYCVFDVLMVNNKKLGHETLRKRYEILSSIFTPIPGRIEIVQKTQAHTKNEVIDALNEAIDKREEGIMVKQPLSIYKPDKRGEGWLKIKPEYVSGLMDELDILIVGGYWGKGSRGGMMSHFLCAVAEKPPPGEKPSVFHTLSRVGSGCTMKELYDLGLKLAKYWKPFHRKAPPSSILCGTEKPEVYIEPCNSVIVQIKAAEIVPSDMYKTGCTLRFPRIEKIRDDKEWHECMTLDDLEQLRGKASGKLASKHLYIGGDDEPQEKKRKAAPKMKKVIGIIEHLKAPNLTNVNKISNIFEDVEFCVMSGTDSQPKPDLENRIAEFGGYIVQNPGPDTYCVIAGSENIRVKNIILSNKHDVVKPAWLLECFKTKSFVPWQPRFMIHMCPSTKEHFAREYDCYGDSYFIDTDLNQLKEVFSGIKNSNEQTPEEMASLIADLEYRYSWDCSPLSMFRRHTVYLDSYAVINDLSTKNEGTRLAIKALELRFHGAKVVSCLAEGVSHVIIGEDHSRVADFKAFRRTFKRKFKILKESWVTDSIDKCELQEENQYLI
B4: Keratin, type II cytoskeletal 6A (Homo sapiens), P02538 (parent)
chain: MASTSTTIRSHSSSRRGFSANSARLPGVSRSGFSSVSVSRSRGSGGLGGACGGAGFGSRSLYGLGGSKRISIGGGSCAISGGYGSRAGGSYGFGGAGSGFGFGGGAGIGFGLGGGAGLAGGFGGPGFPVCPPGGIQEVTVNQSLLTPLNLQIDPTIQRVRAEEREQIKTLNNKFASFIDKVRFLEQQNKVLETKWTLLQEQGTKTVRQNLEPLFEQYINNLRRQLDSIVGERGRLDSELRGMQDLVEDFKNKYEDEINKRTAAENEFVTLKKDVDAAYMNKVELQAKADTLTDEINFLRALYDAELSQMQTHISDTSVVLSMDNNRNLDLDSIIAEVKAQYEEIAQRSRAEAESWYQTKYEELQVTAGRHGDDLRNTKQEIAEINRMIQRLRSEIDHVKKQCANLQAAIADAEQRGEMALKDAKNKLEGLEDALQKAKQDLARLLKEYQELMNVKLALDVEIATYRKLLEGEECRLNGEGVGQVNISVVQSTVSSGYGGASGVGSGLGLGGGSSYSYGSGLGVGGGFSSSSGRAIGGGLSSVGGGSSTIKYTTTSSSSRKSYKH
partner: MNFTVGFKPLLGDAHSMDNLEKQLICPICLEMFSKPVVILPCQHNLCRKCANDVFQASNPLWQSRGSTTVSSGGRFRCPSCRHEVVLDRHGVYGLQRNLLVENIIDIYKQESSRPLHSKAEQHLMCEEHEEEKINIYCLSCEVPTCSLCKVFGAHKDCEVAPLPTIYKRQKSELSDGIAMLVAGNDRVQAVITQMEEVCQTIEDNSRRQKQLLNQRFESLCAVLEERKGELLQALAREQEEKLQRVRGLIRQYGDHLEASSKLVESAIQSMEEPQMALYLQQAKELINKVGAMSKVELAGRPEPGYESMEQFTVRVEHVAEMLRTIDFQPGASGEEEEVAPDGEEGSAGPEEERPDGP

Variants of: B1
Conditions: with 4et_human EIF4ENIF1, Q9NRA8

effect of a mutation on the interaction | Variant
disrupting interaction | T508R

Variants of: B2
Conditions: with KRT19, P08727
Chain of KRT19, P08727 (P08727 whole entry): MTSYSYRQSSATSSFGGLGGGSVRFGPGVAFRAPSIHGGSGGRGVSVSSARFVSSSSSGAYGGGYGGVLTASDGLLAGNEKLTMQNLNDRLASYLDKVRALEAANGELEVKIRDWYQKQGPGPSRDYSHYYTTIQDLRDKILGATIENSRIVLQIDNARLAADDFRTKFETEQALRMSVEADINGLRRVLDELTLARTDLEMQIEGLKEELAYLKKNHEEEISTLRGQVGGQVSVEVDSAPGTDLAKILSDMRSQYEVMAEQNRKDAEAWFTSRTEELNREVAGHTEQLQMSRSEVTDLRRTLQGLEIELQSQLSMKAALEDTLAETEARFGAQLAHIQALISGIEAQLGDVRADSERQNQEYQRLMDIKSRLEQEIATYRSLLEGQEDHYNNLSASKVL

effect of a mutation on the interaction | Variant
disrupting interaction | I477N

Variants of: B3
Conditions: with xrcc4_human XRCC4, Q13426
Chain of xrcc4_human XRCC4, Q13426 (Q13426 whole entry): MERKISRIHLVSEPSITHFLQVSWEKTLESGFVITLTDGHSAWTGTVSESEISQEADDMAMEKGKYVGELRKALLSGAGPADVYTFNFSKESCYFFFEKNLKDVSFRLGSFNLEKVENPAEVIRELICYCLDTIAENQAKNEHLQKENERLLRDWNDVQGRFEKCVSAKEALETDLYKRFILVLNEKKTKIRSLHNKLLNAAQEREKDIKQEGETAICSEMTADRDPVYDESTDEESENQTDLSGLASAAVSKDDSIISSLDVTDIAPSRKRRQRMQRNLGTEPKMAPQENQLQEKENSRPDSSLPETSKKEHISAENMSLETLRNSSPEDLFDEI

effect of a mutation on the interaction | Variant
disrupting interaction | A3V

Variants of: B4
Conditions: with tri54_human TRIM54, Q9BYV2

effect of a mutation on the interaction | Variant
disrupting interaction | A463P
